Among the data in the supplement of paper PMC12042874 are amyloid nucleation score values, retold here.

± gives the uncertainty stated by the source.

The nature of the series: amyloid nucleation score (Sup35N fusion, yeast selection) (log enrichment); library NNK3; higher = more nucleation; inactive = no reads after selection. In short, it runs like this: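 DiMSum was used to calculate nucleation scores as log enrichment of output over input reads, centred on the mode score of non-aggregating sequences. Sequences with fewer than 100 input reads were not scored. Input and output came from Illumina sequencing of plasmid inserts in psi-negative yeast expressing peptides of 20 random codons fused to Sup35N, induced 24 hours with 100 μM copper sulfate and then grown 7 days at 30°C on medium lacking adenine and uracil.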
On to SQTLQKDLAPSAKLCKIPGV, for which the amyloid nucleation score result was “inactive”. The same measure for TFFVLGCLINLLGMKWTGWV: “inactive”; for RKIHVAMVLRIEYSMYGSPA: “inactive”. Then NHGLLTKGMISAFRII, with “inactive”; and LPGNVFDVPLFNLDVYWVTR, with “inactive”. Then VRYVNGSKCTFNLS, with “inactive”; and VGERLANQIGTYCDDQWWTW, with “inactive”; and CNNLFFSWLKFMLIGIMGH, with “inactive”.

The substance ILNTCYISHFPFQL came in with an amyloid nucleation score of 2.33 ± 0.087.

Regarding FFGFPLV, the amyloid nucleation score entry is “inactive”. Then VFRLLVDKYCGFSPVGLPDV, with “inactive”; and YFMIDRPALRLVDKKCGSRS, with “inactive”. The same measure for MWVLSV: “inactive”. The same measure for YHEGLYCGWSYNNCYLTFIG: 0.821 ± 0.25; for KCGIQLICMWFS: 1.47 ± 0.14; for ALVWFENVSVQELQWIKLTS: “inactive”. Turning to TEQNVSGCEGEGSYGYTRYA, the amyloid nucleation score entry is “inactive”.

RSILVFHSDRLKYGYLMIDV: the amyloid nucleation score entry is “inactive”.

Take LLAMPNQRWGTTLLYVQDWF: the amyloid nucleation score result is “inactive”. The same measure for SGVLLFGVSRMHQR: 0.203 ± 0.28. Then NHYATFGCSVTFAIVNWSRF, with 1.86 ± 0.057; and GRVSYCITRME, with “inactive”. For the substance SAGWMSTKVSVQLTNYPGLA, the amyloid nucleation score was 1.33 ± 0.16. Then MTESNGGFPG, with “inactive”. The same measure for IVYREVCVFVNM: 1.78 ± 0.063; for KISNFLTSSLCMYGSLRWRV: 0.548 ± 0.2. Then SVYDCQLVACHLMRDHKK, with “inactive”; and TSVLSTGCYTRTVTNVNGSI, with “inactive”; and MRYINEKCVT, with “inactive”. GISRMGMAEDPDSGWSHDYY: the amyloid nucleation score result was “inactive”.

For the substance TKWRLTP, the amyloid nucleation score result is “inactive”.

LFWYTAH came in with an amyloid nucleation score of -0.361 ± 0.38. The same measure for SEAMFSIVLKECNGGACR: “inactive”; for YYNSGSLNTYPVNLNLDNFH: “inactive”. The same measure for ALGIYRTIYCVIVFG: “inactive”; for LSDFMLVAILTV: “inactive”; for YLFEYSEV: “inactive”.

With TFNSLVCQFIKPLHHLFATL, the amyloid nucleation score entry is “inactive”.

FVYYANYQYFRPFYKMSWHQ returned an amyloid nucleation score of 1.51 ± 0.078. As to HLCWNRQGNDRRELKSRWRK, the amyloid nucleation score result was “inactive”. The same measure for WRAADDQTWGLVRCLSI: 0.57 ± 0.17; for RCCLNTVPSAFTGYKNPTVK: “inactive”.

For FLVWDFRSERKRKKI, the amyloid nucleation score entry was “inactive”. The same measure for TGTSSKYVGEVLHSLVVWFA: -0.575 ± 1.5; for YVGPKMFLVWVCDATDVGKW: “inactive”. Then WWCMNRCEDAASINGIVARK, with “inactive”. Then EAWIIMSRVGI, with “inactive”.

As to DFGFYWSSVGHAGLETKLYP, the amyloid nucleation score result is “inactive”.

As for QTNLGPFVPSYGCFLCWMEG, the amyloid nucleation score entry is “inactive”. The same measure for DLIRQRAETPKMVISWR: “inactive”; for NSLCSLVLTLIWWIKCPCDV: “inactive”; for CEYAYFGMDYLLEAGSKSDY: “inactive”. Then TAVVKW, with “inactive”; and TRILVRTGYHLLFLEG, with “inactive”. Then YRYCINVTKYHLLQ, with “inactive”; and QLRASA, with “inactive”; and ISSRGSMTRL, with “inactive”. Regarding NAKPCSGPTMTGADEFPLCL, the amyloid nucleation score entry is “inactive”.

As to IGFNA, the amyloid nucleation score result is “inactive”. Then FYTIGWGWNQKCGIFRHMVR, with “inactive”; and LMLILCY, with “inactive”. The same measure for VLLIWIIVPTWF: 0.5 ± 0.14. Then LYNVMGLALASLAISNLRDK, with “inactive”; and YVWIDYSSVYMD, with “inactive”; and QLCLCRKATLMSPTRLLQRA, with -0.41 ± 1.9. Turning to SLHWVYYIINYTVALTGVLL, the amyloid nucleation score result is “inactive”. For the substance VEEGFGLMSKIAHSIGLREC, the amyloid nucleation score is -0.278 ± 1.4.

DIIVKQLPKRYGPTMSIRNM displayed an amyloid nucleation score of -0.057 ± 0.58. For AGNLLARPSLQKGCLLDELP, the amyloid nucleation score is -0.73 ± 1.7.

Turning to FRLRYRYFCRGRGCMDDLEY, the amyloid nucleation score is -0.288 ± 0.8.

Consider WYVCRSGVCGHALIALATRR, for which the amyloid nucleation score is -0.483 ± 0.61. Then RCNLGTAAHFCKY, with “inactive”; and GWRCCWIIWADAVYE, with 3.05 ± 0.075; and TRYGNW, with “inactive”. The same measure for FFSDRLTSTGSMES: “inactive”.

AVTCVDSWMRDTG: the amyloid nucleation score entry is “inactive”.

For SFFLVSWLGALTVVIPVQ, the amyloid nucleation score result was “inactive”. Then WSNNMWYVRYSDFCISCLLV, with “inactive”; and VFQRR, with “inactive”; and DGSIGRGVDRRLTKSSQPAL, with “inactive”.

For VQDPDL, the amyloid nucleation score result is “inactive”. Then WTNSSQHLSESLWYVDYCQG, with “inactive”. Consider ASGDLAGSKLVSYRVATLIN, for which the amyloid nucleation score entry is “inactive”. The same measure for TLGRNCLVQRSCMGRSSECD: “inactive”. Take SETCWVIIYWYIGVKMFSRF: the amyloid nucleation score result is “inactive”. The same measure for MAHAFDTR: “inactive”; for VIQIYIMRCLYDYYI: 2.8 ± 0.063; for QFYGLHMAFGKQVNALYTGH: “inactive”. The same measure for PLPLCKVM: -0.039 ± 0.66; for MKFVPHYEGVYCL: “inactive”; for SKESCRCLSWCGPEPRSCIA: “inactive”. The same measure for NKWQRNSSNKFTCAQVPFFA: “inactive”; for INVTLCCTMYD: 3.02 ± 0.053. As for FPWYAIFSHSMLCVDIQDF, the amyloid nucleation score is 0.958 ± 0.2.

In the case of TWESGENLTLTWAAQMGRCG, the amyloid nucleation score result is “inactive”. Consider RCECVPPNQTRCYQRLASS, for which the amyloid nucleation score entry was “inactive”.

For VYLDFKGWFVMLSINLNQFY, the amyloid nucleation score result was “inactive”. The same measure for VESFICDMIVSPHSLS: “inactive”. The same measure for LCSYGVGWD: “inactive”; for EYYDI: “inactive”. Then TYQST, with “inactive”; and YKCHMSVYRGFINCNVVLMR, with “inactive”. In the case of WDPGFFWIMAVARFTIACQY, the amyloid nucleation score result is “inactive”. The same measure for NMQGLRFSRKCCEHRGFYIC: “inactive”; for RIFYKVDTDGIIIIVYS: “inactive”; for GVYSVTCMFYKWEVGWSSSD: “inactive”. Then YLIYCL, with “inactive”; and RDSLFSV, with “inactive”; and RRFKQCNHILACR, with “inactive”. The same measure for CCRVRTS: “inactive”; for YSLCLGIAHVRMSTARYYLA: “inactive”. In the case of GVLSLLFSYIIVYEWKEMGN, the amyloid nucleation score result was “inactive”. The same measure for PRLTFSVVVRFCIHTLCLLK: “inactive”.

With VDAIASGVYWPPVVVYSWLF, the amyloid nucleation score result is “inactive”. Then ILMQNSETWSLYPNTA, with “inactive”. Then MVCWANKHWYSSHLLYDSVY, with “inactive”; and CWQFK, with 0.22 ± 0.9; and ERPSLVEW, with “inactive”. Turning to SLLNSNHHGRVMQPRRINSD, the amyloid nucleation score entry was “inactive”. With IVILPM, the amyloid nucleation score entry is “inactive”.

Regarding YKCMLYSFG, the amyloid nucleation score entry is “inactive”. Then IYSTWET, with -0.698 ± 1.5. The same measure for LLLIKPRKVPLIEVCGWETV: “inactive”; for AFAMRMTCSGLVNICHFAWL: 0.287 ± 0.38; for ARMLSVYSSESQCVTPGWCC: “inactive”. Turning to YKPLFVCSRHLMNRELCTGY, the amyloid nucleation score result was “inactive”. The same measure for NSYGPRKSSGRVAPF: “inactive”; for AAGRGWTGEALMHRNAQCDS: 0.244 ± 0.87; for FLSYTPRATGYHFFRLSIFC: “inactive”. The same measure for IYGTRGSIKSYDTHSGRCGR: “inactive”; for FYVRVALRVSLLLWSGFTWV: “inactive”; for FSHGFSIYRLKKT: “inactive”. For TNVRIYCSWGVDAG, the amyloid nucleation score result was “inactive”.
